# Paper PMC5594479, “Identification and immobilization of a novel cold-adapted esterase, and its potential for bioremediation of pyrethroid-contaminated vegetables” (Microbial Cell Factories, 2017)
# B1: Est684 (uncultured microorganism) (protein)
# chain: MPSGENQFYVDKPSRGENYGAYVADELVEFTRKMFPLSYKKEDTFIAGLSMGGYGALINGLKYHETFSHIGAFSPGLMIDDIASRSELLSVTGWSMDFYGNSFGGIDTIKNSDKDYYYLIDQLLENKKEIPKIYLPIGTDDFLLESVRGFKSFVDKREVPLTYIEDDGGHEWDFWDKYVKNFLEWLPLEEKGNYLNSGNVAEHGFRDADAQKAQAALVAWFEETLKK
# notes: E. coli BL21 (DE3); Ni-NTA and Superdex 200; putative triad S103/D167/H203
# Substrate: CCCC(=O)Oc1ccc([N+](=O)[O-])cc1
# Assay: purified protein
# Assay type: biochemical, uncultured microorganism
# Conditions: free (soluble) enzyme, potassium phosphate pH 6.5, 18 °C, substrate range printed as 1.0 to 10.0 mM, does not fit the printed Km unit
protein,measurement,value
B1,Km,6.01 mM
same,kcat,417.15 ± 1.51 s⁻¹
